Results as given in PMC6140455.

Tests used:
Assay in all cases: fluorescence anisotropy
[1] = molecular target: T1, YTHDC2 YTH domain (Homo sapiens, UniProt Q9H6S0 1277-1430)
T1 sequence: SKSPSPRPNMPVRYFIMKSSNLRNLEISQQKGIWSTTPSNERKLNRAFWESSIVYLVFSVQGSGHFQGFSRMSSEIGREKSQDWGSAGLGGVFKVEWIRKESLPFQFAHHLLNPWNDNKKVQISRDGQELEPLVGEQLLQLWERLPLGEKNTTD

[2] = molecular target: T2, YTHDC2 YTH domain W1360A (Homo sapiens, UniProt Q9H6S0 1277-1430, W1360A)
T2 sequence: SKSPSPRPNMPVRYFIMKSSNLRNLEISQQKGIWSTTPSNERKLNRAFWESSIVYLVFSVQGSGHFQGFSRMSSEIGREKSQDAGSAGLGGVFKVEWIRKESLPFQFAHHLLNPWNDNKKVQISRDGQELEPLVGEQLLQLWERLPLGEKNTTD

[3] = molecular target: T3, YTHDC2 YTH domain W1310A (Homo sapiens, UniProt Q9H6S0 1277-1430, W1310A)
T3 sequence: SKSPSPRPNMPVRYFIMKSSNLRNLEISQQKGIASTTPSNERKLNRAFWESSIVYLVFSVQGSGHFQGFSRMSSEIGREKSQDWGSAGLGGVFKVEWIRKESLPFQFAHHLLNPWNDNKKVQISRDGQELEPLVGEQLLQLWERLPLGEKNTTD

For CCGGACUGU (ssRNA, N6-methyladenosine at position 5) [GGm6ACU 9-nt RNA], the Kd [1] was 3.2 ± 0.3 µM, the binding result [2] was “no binding” and the binding result [3] was “no binding”.
